Structures are written as SMILES. Starred links: 1 amine or outer side, 2 acyl side, 3 side chain; linkers in the order of their positions; H or OH if unused. Positions of bridges follow the written chain, without caps; N, C: chain ends. Residues, ends and D or L forms follow the SMILES beside them. Octanediyl(1,8) = C(CCCC[*:2])CCC[*:1]; X5 = C(CCC[*:1])CCC[*:2]; X6 = C(=C\C[*:2])/C[*:1]; X4 = C(CCC[*:2])CC[*:1]; X2 = C(CC[*:1])CC[*:2]; X3 = C(CC[*:2])C[*:1]; X1 = C(C[*:1])C[*:2]

The nature of the data set: circular dichroism. The settings on record: deionized water; pH unbuffered; 20 °C; 25 uM.
`CC[C@H](C)[C@H](NC(=O)[C@H](CCC(N)=O)NC(=O)[C@@H](NC(=O)[C@@H]1CSCCCSC[C@H](NC(=O)[C@H](CC(C)C)NC(=O)[C@H](Cc2c[nH]c3ccccc23)NC(=O)[C@H](CCC(=O)O)NC(C)=O)C(=O)N[C@@H](CCC(=O)O)C(=O)N[C@@H](CCCCN)C(=O)N[C@@H]([C@@H](C)O)C(=O)N1)[C@@H](C)O)C(=O)N[C@@H](CCC(=O)O)C(=O)N[C@@H](CCC(=O)O)C(=O)N[C@@H](Cc1ccccc1)C(N)=O` (Ac-EWLCEKTCTQIEEF-NH2; linker 4-8 via X1) gave a helicity of 38.4%.

`CC[C@H](C)[C@H](NC(=O)[C@H](CCC(N)=O)NC(=O)[C@@H](NC(=O)[C@@H]1CSCCCCCSC[C@H](NC(=O)[C@H](CC(C)C)NC(=O)[C@H](Cc2c[nH]c3ccccc23)NC(=O)[C@H](CCC(=O)O)NC(C)=O)C(=O)N[C@@H](CCC(=O)O)C(=O)N[C@@H](CCCCN)C(=O)N[C@@H]([C@@H](C)O)C(=O)N1)[C@@H](C)O)C(=O)N[C@@H](CCC(=O)O)C(=O)N[C@@H](CCC(=O)O)C(=O)N[C@@H](Cc1ccccc1)C(N)=O` (Ac-EWLCEKTCTQIEEF-NH2; linker 4-8 via X2) displayed a helicity of 19.7%.

As for `CC[C@H](C)[C@H](NC(=O)[C@H](CC(C)C)NC(=O)[C@H](Cc1ccccc1)NC(=O)[C@H](CC(=O)O)NC(=O)[C@H](Cc1c[nH]cn1)NC(=O)[C@H](CCSC)NC(=O)[C@H](CO)NC(=O)[C@@H](NC(=O)[C@@H]1CSCCCCCSC[C@H](NC(=O)[C@H](CC(N)=O)NC(=O)[C@H](CCCNC(=N)N)NC(=O)[C@H](CS)NC(=O)[C@H](CC(C)C)NC(C)=O)C(=O)N[C@@H](CCSC)C(=O)N[C@@H](CC(C)C)C(=O)N[C@@H](Cc2c[nH]cn2)C(=O)N1)C(C)C)C(N)=O` (Ac-LCRNCMLHCVSMHDFLI-NH2; linker 5-9 via X2), the helicity was determined as 61.6%.

`CC[C@H](C)[C@@H]1NC(=O)[C@@H](NC(=O)[C@H](CC(=O)O)NC(=O)[C@@H](NC(=O)[C@@H](NC(C)=O)[C@@H](C)O)C(C)C)CSCCCSC[C@@H](C(=O)N[C@@H](CC(C)C)C(=O)N[C@@H](CO)C(=O)N[C@H](C(=O)N[C@@H](CC(C)C)C(=O)N[C@@H](C)C(=O)N[C@@H](CCC(=O)O)C(=O)N[C@@H](CCC(=O)O)C(=O)N[C@H](C(=O)N2CCC[C@H]2C(=O)N[C@@H](CCC(N)=O)C(=O)N[C@@H](CC(N)=O)C(N)=O)C(C)C)C(C)C)NC(=O)[C@H](CO)NC(=O)[C@H](C)NC1=O` (Ac-TVDCIASCLSVLAEEVPQN-NH2; linker 4-8 via X1) showed a helicity of 23%.

`CC[C@H](C)[C@@H]1NC(=O)[C@@H](NC(=O)[C@H](CC(=O)O)NC(=O)[C@@H](NC(=O)[C@@H](NC(C)=O)[C@@H](C)O)C(C)C)CSCCCCCSC[C@@H](C(=O)N[C@@H](CC(C)C)C(=O)N[C@@H](CO)C(=O)N[C@H](C(=O)N[C@@H](CC(C)C)C(=O)N[C@@H](C)C(=O)N[C@@H](CCC(=O)O)C(=O)N[C@@H](CCC(=O)O)C(=O)N[C@H](C(=O)N2CCC[C@H]2C(=O)N[C@@H](CCC(N)=O)C(=O)N[C@@H](CC(N)=O)C(N)=O)C(C)C)C(C)C)NC(=O)[C@H](CO)NC(=O)[C@H](C)NC1=O` (Ac-TVDCIASCLSVLAEEVPQN-NH2; linker 4-8 via X2) displayed a helicity of 9%.

`CC[C@H](C)[C@H](NC(=O)[C@H](CCCCN)NC(=O)[C@H](CC(=O)O)NC(=O)[C@@H](NC(=O)[C@@H](NC(C)=O)[C@@H](C)O)C(C)C)C(=O)N[C@@H](C)C(=O)N[C@@H](CO)C(=O)N[C@@H](C)C(=O)N[C@H]1CSCCCCCCCCSC[C@@H](C(=O)N2CCC[C@H]2C(=O)N[C@@H](CCC(N)=O)C(=O)N[C@@H](CC(N)=O)C(N)=O)NC(=O)[C@H](CCC(=O)O)NC(=O)[C@H](CCC(=O)O)NC(=O)[C@H](C)NC(=O)[C@H](CC(C)C)NC(=O)[C@H](C(C)C)NC(=O)[C@H](CO)NC1=O` (Ac-TVDKIASACSVLAEECPQN-NH2; linker 9-16 via Octanediyl(1,8)) came in with a helicity of 12.1%.

The compound `CC[C@H](C)[C@H](NC(=O)[C@H](CCCCN)NC(=O)[C@H](CC(=O)O)NC(=O)[C@@H](NC(=O)[C@@H](NC(C)=O)[C@@H](C)O)C(C)C)C(=O)N[C@@H](C)C(=O)N[C@@H](CO)C(=O)N[C@@H](C)C(=O)N[C@H]1CSCCCCCCSC[C@@H](C(=O)N2CCC[C@H]2C(=O)N[C@@H](CCC(N)=O)C(=O)N[C@@H](CC(N)=O)C(N)=O)NC(=O)[C@H](CCC(=O)O)NC(=O)[C@H](CCC(=O)O)NC(=O)[C@H](C)NC(=O)[C@H](CC(C)C)NC(=O)[C@H](C(C)C)NC(=O)[C@H](CO)NC1=O` (Ac-TVDKIASACSVLAEECPQN-NH2; linker 9-16 via X4) displayed a helicity of 8.7%.

For `CC[C@H](C)[C@H](NC(=O)[C@H](CCCCN)NC(=O)[C@H](CC(=O)O)NC(=O)[C@@H](NC(=O)[C@@H](NC(C)=O)[C@@H](C)O)C(C)C)C(=O)N[C@@H](C)C(=O)N[C@@H](CO)C(=O)N[C@@H](C)C(=O)N[C@H]1CSCCCCCCCSC[C@@H](C(=O)N2CCC[C@H]2C(=O)N[C@@H](CCC(N)=O)C(=O)N[C@@H](CC(N)=O)C(N)=O)NC(=O)[C@H](CCC(=O)O)NC(=O)[C@H](CCC(=O)O)NC(=O)[C@H](C)NC(=O)[C@H](CC(C)C)NC(=O)[C@H](C(C)C)NC(=O)[C@H](CO)NC1=O` (Ac-TVDKIASACSVLAEECPQN-NH2; linker 9-16 via X5), the helicity was determined as 13.7%.

Consider `CC[C@H](C)[C@H](NC(=O)[C@@H]1CSCCCSC[C@H](NC(=O)[C@@H](NC(=O)[C@@H](NC(C)=O)C(C)C)[C@@H](C)CC)C(=O)N[C@@H](CCC(=O)O)C(=O)N[C@@H](CCC(=O)O)C(=O)N[C@@H](Cc2ccc(O)cc2)C(=O)N1)C(=O)N[C@@H](Cc1c[nH]c2ccccc12)C(=O)N[C@@H](CCCCN)C(=O)N[C@@H](CCCCN)C(=O)N[C@@H](CC(N)=O)C(=O)N[C@H](C(=O)N1CCC[C@H]1C(=O)N[C@@H](Cc1ccccc1)C(=O)N[C@@H](CC(C)C)C(N)=O)[C@@H](C)O` (Ac-VICEEYCIWKKNTPFL-NH2; linker 3-7 via X1), for which the helicity worked out at 12.7%.

For the compound `CC[C@H](C)[C@H](NC(=O)[C@@H]1CSCCCCCSC[C@H](NC(=O)[C@@H](NC(=O)[C@@H](NC(C)=O)C(C)C)[C@@H](C)CC)C(=O)N[C@@H](CCC(=O)O)C(=O)N[C@@H](CCC(=O)O)C(=O)N[C@@H](Cc2ccc(O)cc2)C(=O)N1)C(=O)N[C@@H](Cc1c[nH]c2ccccc12)C(=O)N[C@@H](CCCCN)C(=O)N[C@@H](CCCCN)C(=O)N[C@@H](CC(N)=O)C(=O)N[C@H](C(=O)N1CCC[C@H]1C(=O)N[C@@H](Cc1ccccc1)C(=O)N[C@@H](CC(C)C)C(N)=O)[C@@H](C)O` (Ac-VICEEYCIWKKNTPFL-NH2; linker 3-7 via X2), the helicity came out at 11%.

The compound `CC[C@H](C)[C@H](NC(=O)[C@@H]1CSCCCCSC[C@H](NC(=O)[C@@H](NC(=O)[C@@H](NC(C)=O)C(C)C)[C@@H](C)CC)C(=O)N[C@@H](CCC(=O)O)C(=O)N[C@@H](CCC(=O)O)C(=O)N[C@@H](Cc2ccc(O)cc2)C(=O)N1)C(=O)N[C@@H](Cc1c[nH]c2ccccc12)C(=O)N[C@@H](CCCCN)C(=O)N[C@@H](CCCCN)C(=O)N[C@@H](CC(N)=O)C(=O)N[C@H](C(=O)N1CCC[C@H]1C(=O)N[C@@H](Cc1ccccc1)C(=O)N[C@@H](CC(C)C)C(N)=O)[C@@H](C)O` (Ac-VICEEYCIWKKNTPFL-NH2; linker 3-7 via X3) came in with a helicity of 11.5%.

With `CC[C@H](C)[C@H](NC(=O)[C@@H]1CSCCCCCCSC[C@H](NC(=O)[C@@H](NC(=O)[C@@H](NC(C)=O)C(C)C)[C@@H](C)CC)C(=O)N[C@@H](CCC(=O)O)C(=O)N[C@@H](CCC(=O)O)C(=O)N[C@@H](Cc2ccc(O)cc2)C(=O)N1)C(=O)N[C@@H](Cc1c[nH]c2ccccc12)C(=O)N[C@@H](CCCCN)C(=O)N[C@@H](CCCCN)C(=O)N[C@@H](CC(N)=O)C(=O)N[C@H](C(=O)N1CCC[C@H]1C(=O)N[C@@H](Cc1ccccc1)C(=O)N[C@@H](CC(C)C)C(N)=O)[C@@H](C)O` (Ac-VICEEYCIWKKNTPFL-NH2; linker 3-7 via X4), the helicity amounted to 19.4%.

Compound `CC[C@H](C)[C@H](NC(=O)[C@@H]1CSC/C=C/CSC[C@H](NC(=O)[C@@H](NC(=O)[C@@H](NC(C)=O)C(C)C)[C@@H](C)CC)C(=O)N[C@@H](CCC(=O)O)C(=O)N[C@@H](CCC(=O)O)C(=O)N[C@@H](Cc2ccc(O)cc2)C(=O)N1)C(=O)N[C@@H](Cc1c[nH]c2ccccc12)C(=O)N[C@@H](CCCCN)C(=O)N[C@@H](CCCCN)C(=O)N[C@@H](CC(N)=O)C(=O)N[C@H](C(=O)N1CCC[C@H]1C(=O)N[C@@H](Cc1ccccc1)C(=O)N[C@@H](CC(C)C)C(N)=O)[C@@H](C)O` (Ac-VICEEYCIWKKNTPFL-NH2; linker 3-7 via X6) gave a helicity of 19%.

Compound `CC[C@H](C)[C@@H]1NC(=O)[C@@H](NC(=O)[C@H](Cc2ccc(O)cc2)NC(=O)[C@H](CCC(=O)O)NC(=O)[C@H](CCC(=O)O)NC(=O)[C@H](CC(N)=O)NC(=O)[C@@H](NC(=O)[C@@H](NC(C)=O)C(C)C)[C@@H](C)CC)CSCCCSC[C@@H](C(=O)N[C@@H](CC(N)=O)C(=O)N[C@H](C(=O)N2CCC[C@H]2C(=O)N[C@@H](Cc2ccccc2)C(=O)N[C@@H](CC(C)C)C(N)=O)[C@@H](C)O)NC(=O)[C@H](CCCCN)NC(=O)[C@H](Cc2c[nH]c3ccccc23)NC1=O` (Ac-VINEEYCIWKCNTPFL-NH2; linker 7-11 via X1) returned a helicity of 18.4%.

The compound `CC[C@H](C)[C@@H]1NC(=O)[C@@H](NC(=O)[C@H](Cc2ccc(O)cc2)NC(=O)[C@H](CCC(=O)O)NC(=O)[C@H](CCC(=O)O)NC(=O)[C@H](CC(N)=O)NC(=O)[C@@H](NC(=O)[C@@H](NC(C)=O)C(C)C)[C@@H](C)CC)CSCCCCCSC[C@@H](C(=O)N[C@@H](CC(N)=O)C(=O)N[C@H](C(=O)N2CCC[C@H]2C(=O)N[C@@H](Cc2ccccc2)C(=O)N[C@@H](CC(C)C)C(N)=O)[C@@H](C)O)NC(=O)[C@H](CCCCN)NC(=O)[C@H](Cc2c[nH]c3ccccc23)NC1=O` (Ac-VINEEYCIWKCNTPFL-NH2; linker 7-11 via X2) registered a helicity of 5.68%.

Compound `CC[C@H](C)[C@@H]1NC(=O)[C@@H](NC(=O)[C@H](Cc2ccc(O)cc2)NC(=O)[C@H](CCC(=O)O)NC(=O)[C@H](CCC(=O)O)NC(=O)[C@H](CC(N)=O)NC(=O)[C@@H](NC(=O)[C@@H](NC(C)=O)C(C)C)[C@@H](C)CC)CSCCCCSC[C@@H](C(=O)N[C@@H](CC(N)=O)C(=O)N[C@H](C(=O)N2CCC[C@H]2C(=O)N[C@@H](Cc2ccccc2)C(=O)N[C@@H](CC(C)C)C(N)=O)[C@@H](C)O)NC(=O)[C@H](CCCCN)NC(=O)[C@H](Cc2c[nH]c3ccccc23)NC1=O` (Ac-VINEEYCIWKCNTPFL-NH2; linker 7-11 via X3) came in with a helicity of 16.5%.

These data come from patent US11345725B2, “Bis-thioether stapled peptides as inhibitors of PRC2 function” (Research Foundation of the City University of New York, priority 2019, dated 2022).
